In PMC5353646, “Allosteric modulation of peroxisomal membrane protein recognition by farnesylation of the peroxisomal import receptor PEX19” (Nature Communications, 2017):
“Also recorded” adds a separate entry of the source.

Legend:
[1] = test system: PEX19-deficient human fibroblasts; test: Immunoblot analysis of PEX19 variants in transfected fibroblasts; type: cell-based
Source text: A bicistronic expression plasmid coding for eGFP-PTS1 and non-tagged PEX14 (pMF1220)[43] was kindly provided by Marc Fransen (Leuven, Belgium). pIRES2-HsPEX19-eGFP-PTS1 was constructed by replacing the open reading frame of PEX14 (BglII/SalI) with a DNA-cassette encoding the full-length open reading frame of human PEX19 as derived from BamHI/SalI digestion of pAH05 (ref. [44]). Single point mutations were introduced into the PEX19 sequence by Quickchange XL Site-directed Mutagenesis kit (Stratagene) using primer pairs (Supplementary Table 1). […] After 72 h of transfection, cells were subjected to fluorescence and immunofluorescence microscopy using polyclonal antiserum against human PEX14 (ref. [45]) (1:400 diluted) or monoclonal antibodies against human PEX19 (BD Biosciences, MA5-17266 Thermo Scientific; 1:400 diluted). […] Based on the appearance of eGFP-PTS1 fluorescence pattern, about 100 cells of each experiment were visually categorized into three classes, (i) full complementation of peroxisomal import as visualized by punctuate staining pattern, (ii) partial complementation as indicated by diffuse cytosolic staining with few dots, (iii) no complementation resulting in only cytosolic staining. […]

[2] = test system: PEX19-deficient human fibroblasts (ΔPEX19 T); test: Functional complementation of PEX19-deficient fibroblasts (peroxisomal protein import); type: cell-based; conditions: full-length PEX19 variants, 72 h after transfection; for cells showing restored peroxisomal protein transport (functional complementation): at least 100 cells in three independent transfections, series of Fig. 3c
Source text: A bicistronic expression plasmid coding for eGFP-PTS1 and non-tagged PEX14 (pMF1220)[43] was kindly provided by Marc Fransen (Leuven, Belgium). pIRES2-HsPEX19-eGFP-PTS1 was constructed by replacing the open reading frame of PEX14 (BglII/SalI) with a DNA-cassette encoding the full-length open reading frame of human PEX19 as derived from BamHI/SalI digestion of pAH05 (ref. [44]). Single point mutations were introduced into the PEX19 sequence by Quickchange XL Site-directed Mutagenesis kit (Stratagene) using primer pairs (Supplementary Table 1). The bicistronic expression vectors coding for PEX19 variants and eGFP-PTS1 were transfected into the human cell-line ΔPEX19 T which was derived from PEX19-deficient Zellweger patient fibroblasts. ΔPEX19 T cells, characterized by a defect in peroxisome biogenesis were routinely authenticated by functional complementation assays as described below and checked for mycoplasma contamination using Venor GeM Advance Mycoplasm Detection Kit (Minerva Biolabs). The efficiency of transfection according to the Amaxa Cell Line Nucleofector Kit R protocol (Lonza Cologne AG) was always around 90%. After 72 h of transfection, cells were subjected to fluorescence and immunofluorescence microscopy using polyclonal antiserum against human PEX14 (ref. [45]) (1:400 diluted) or monoclonal antibodies against human PEX19 (BD Biosciences, MA5-17266 Thermo Scientific; 1:400 diluted). Statistical analysis was carried out from three independent transfections of each pIRES-PEX19-eGFP-PTS1 expression plasmid. Based on the appearance of eGFP-PTS1 fluorescence pattern, about 100 cells of each experiment were visually categorized into three classes, (i) full complementation of peroxisomal import as visualized by punctuate staining pattern, (ii) partial complementation as indicated by diffuse cytosolic staining with few dots, (iii) no complementation resulting in only cytosolic staining. All micrographs were recorded on a Zeiss Axioplan 2 microscope with a Zeiss Plan-Apochromat × 63/1.4 oil objective and an Axiocam MR digital camera, and were processed with AxioVision 4.6 software (Zeiss, Jena, Germany). The steady-state level of PEX19 expression was assessed by immunoblot analysis, using monoclonal mouse antibodies against HsPEX19 (BD Biosciences, MA5-17266; 1:1,000 diluted) (Supplementary Fig. 9).

[3] = Stability of purified protein in solution; type: physicochemical
[4] = Hydrophobic interaction chromatography; type: physicochemical
Procedure: Purified PEX19 CTD and variants were adjusted to a buffer containing 650 mM (NH4)2SO4 and 500 μg protein was subjected to equilibrated Butyl Sepharose FF column (20 mM potassium phosphate, pH 6.5, 50 mM NaCl and 650 mM (NH4)2SO4). After washing, bound protein was eluted with linear decreasing (NH4)2SO4 concentrations (650–0 mM (NH4)2SO4, 20 ml). Eluted proteins were detected using 280 nm absorption. The binding strength is indicated by the elution volume and correlates with protein hydrophobicity.

B1: PEX19 C296S: full-length PEX19 variant which lacks the farnesylation site (protein, UniProt P40855 1-299, looked up, variant C296S)
chain: MAAAEEGCSVGAEADRELEELLESALDDFDKAKPSPAPPSTTTAPDASGPQKRSPGDTAKDALFASQEKFFQELFDSELASQATAEFEKAMKELAEEEPHLVEQFQKLSEAAGRVGSDMTSQQEFTSCLKETLSGLAKNATDLQNSSMSEEELTKAMEGLGMDEGDGEGNILPIMQSIMQNLLSKDVLYPSLKEITEKYPEWLQSHRESLPPEQFEKYQEQHSVMCKICEQFEAETPTDSETTQKARFEMVLDLMQQLQDLGHPPKELAGEMPPGLNFDLDALNLSGPPGASGEQSLIM
modifications: full-length
expression and farnesylation in vivo [1]: lacks the farnesylation site
functional complementation (in words) [2]: cannot fully restore PEX19 function
cells showing restored peroxisomal protein transport (functional complementation) [2]: 46%
cells showing restored peroxisomal protein transport (functional complementation) ([2]; listed as C296S): 50%

B2: M255R: PEX19 CTD variant M255R (helix α4) (protein)
chain: GMDEGDGEGNILPIMQSIMQNLLSKDVLYPSLKEITEKYPEWLQSHRESLPPEQFEKYQEQHSVMCKICEQFEAETPTDSETTQKARFEMVLDLRQQLQDLGHPPKELAGEMPPGLNFDLDALNLSGPPGASGEQCLIM
modifications: left off: His6, end not stated, cleaved
stability in solution after purification [3]: not stable for long time in solution
functional complementation (in words) [2]: not capable of rescuing the ΔPEX19 phenotype; also recorded: completely abolishes PEX19 function
elution volume after start of the gradient ([4]; Butyl Sepharose FF, linear decreasing (NH4)2SO4 650–0 mM, 20 ml, 20 mM potassium phosphate, pH 6.5, 50 mM NaCl, 280 nm, 500 μg protein): 5.00 mL
hydrophobic interaction chromatography, effect on hydrophobicity (in words) ([4]; farnesylated vs non-farnesylated, compared to wild type): most pronounced effects
